Source: US6072028, “EPR-1 proteins, polypeptides, and nucleic acid molecules encoding same” (The Scripps Research Institute, dated 2000)

How the values were obtained:
coagulation factor Xa [1] = target: T1, coagulation factor Xa (human, UniProt P00742); test: saturation binding of ^125 I-Xa to HuT 78* cells, 2.5 mM CaCl2
Procedure: The procedures for the isolation, characterization, and ^125I-labelling of factor Xa were as described previously by Altieri, et al., *J. Biol. Chem.* 264: 2969 (1989). The interaction of ^125I-Xa with HuT 78* cells was analyzed by incubating increasing concentrations of ^125I-Xa (0.45 to 36 nM) with cell suspension at 1.5 to 2×10^7/ml in the presence of 2.5 mM CaCl_2 for 20 minutes at room temperature. At the end of the incubation, the reaction was terminated by centrifugation of aliquots of the cell suspension at 12,000×g for 2 minutes through a mixture of silicone oil to separate free from cell-associated radioactivity. Nonspecific binding was quantified in the presence of 50-fold molar excess of unlabelled factor Xa added at the start of the incubation reaction, and was subtracted from the total to yield net specific binding. In some studies, aliquots of HuT 78* cells were preincubated with 50 µg/ml of mAb 9D4 for 30 minutes at room temperature before the addition of serial concentrations of ^125I-Xa.
HuT 78* cells reacting with the rabbit polyclonal antiserum B78.9 were isolated to 94.2% purity by fluorescence sorting and cloned by limiting dilution. […] The reaction was terminated by centrifugation through mixture of silicone oils and ^125I-Xa specific binding to HuT 78* cells was calculated in the presence or absence of anti-EPR-1 mAb 9D4.

coagulation factor Xa [2] = target: T1, coagulation factor Xa; test: saturation binding of ^125 I-factor Xa (0.45-36 nM) to EPR-1 CHO transfectants, 2.5 mM CaCl2
Procedure: In FIG. A, wild-type (WT) CHO cells (closed squares) or EPR-1 CHO transfectants (closed circles) were incubated with increasing concentrations of ^125I-factor Xa (0.45–36 nM) for 15 minutes at 22° C. In the presence of 2.5 mM CaCl_2. Non-specific binding was assessed in the presence of a 50-fold molar excess of unlabeled factor Xa and was subtracted from the total to calculate net specific binding. Data are the mean±S.E.M. of two independent experiments. ^125I-factor Xa bound at saturation (27 nM) to EPR-1 CHO transfectants corresponded to 729,000±102,000 molecules/cell. […] Thrombin formation in the presence or in the absence of anti-EPR-1 mAb 9D4 (Altieri, et al., Id. (1990)) was assessed by a sensitive clotting assay as described (Altieri, et al., Id. (1989)). Data are expressed as mean±S.E.M. of two independent experiments.
The experimental procedures for the isolation, characterization and ^125I-labeling of factor Xa have been described previously (Altieri, et al., Id. (1989)). […] In the presence of 2.5 mM CaCl_2, before separation of free from cell-associated radioactivity by centrifugation through mixture of silicone oil (Dow Corning, New Bedford, Mass.) at 15,000 xg for 5 minutes at 22° C. Non-specific binding was assessed in the presence of a 50-fold molar excess of unlabeled factor Xa and was subtracted from the total to calculate net specific binding. […]

B1: Effector cell Protease Receptor-1 (EPR-1), on the cell surface (receptor)
chain: MTSRGFQRSCNNPPCSSMTGRRANQIHHLTPDFSLRELLPPKKAGTWADCVSPPCGERDRCEGWADRHTACSSPASTCQVHTQDCDSLNNMRSRHIHCGRLCHANKAVSSSKRDTAFFLPHFSPGKPGNQNSKNEPPKKRERERSSHCYPAAPAAQAEAPLVPLSRQNKSTVETSNLKMLISFPKTLLRGPQEGWWHQGINPGSGAATLGPGSSERPQSIEASCSMARRTFFAVSSNSFFLLLVSFAILFLALSLSSFKNSPRVNSSNCFLTERKAQPDECFLCSSMGSSSGSQPSSSLKQKKHWAKSGSFSVGQWMKPASAIRSGVQRSPPRRASS
- Kd (coagulation factor Xa [1]): 10 to 20 nM
- Kd (coagulation factor Xa [2]): 10 to 15 nM
